Reference: patent publication US20230192785A1, “JNK3 INHIBITORY PEPTIDES” (UNIVERSITA' DEGLI STUDI DI MILANO, priority 2020, published 2023)
Ends that are not written are not given here.

Legend:
JNK3 = JNK3 (Homo sapiens, UniProt P53779); assay: Alpha Screen Kinase Assay, cell-free JNK3 activity; format: biochemical; conditions: cell-free AlphaScreen, FIG. 3B
Method: FIG. 3: A) Cell-free assay of JNK1 activity in the presence of peptides according to the invention.
To evaluate the specificity of the four peptides described above for JNK3, the Alpha Screen Kinase Assay was performed, following the experimental method described for the cell-free assays. Briefly, this AlphaScreen assay is used to measure the ability of the JNK kinase to phosphorylate its targets. The kinase reaction was performed under the following buffer conditions of the assay: 20 mM Tris / HCl (pH 7.4), 10 mM MgCl2, 1 mM DTT, 100 µM Na3VO4 and 0.01% Tween-20. Compounds (final concentration 5 µg / mL, 1% DMSO) or the control vehicle (final concentration 1% DMSO) were diluted in the assay buffer and mixed with JNK kinase (final concentration 5 nM). After an incubation time of 15 minutes at room temperature, biotinylated substrate, 6 nM final and ATP, 1 µM final diluted in assay buffer were added, followed by incubation of the dishes for 2 hours at room temperature. After this incubation period, the streptavidin donor and acceptor beads coated with anti-phosphosubstrate protein A antibody were added, with a final concentration of each component of 20 µg / mL, diluted in the following buffer: 20 mM Tris / HCl (pH 7.4), 200 mM NaCl, 80 mM ethylenediamine tetraacetic acid (EDTA) and 0.3% bovine serum albumin (BSA). After an overnight incubation, the dosage was measured using the AlphaQuest reader.
The ATP-competitive and non-selective inhibitor SP600125 was used as a positive control for the different isoforms of JNK.

mouse cortical neurons = assay: MTT toxicity assay on cortical neurons under control conditions; format: cell-based; conditions: 24 hours, 3 doses tested, FIG. 4A
Method: FIG. 4: A) Toxicity at the indicated concentrations of SIMBA2 was evaluated by MTT assay and it is expressed in % survival. Data are expressed as mean ± SEM of 3 independent experiments (n = 6). ANOVA one-way, Dunnett post hoc test. B) Western blot of cortical neurons under control conditions and relative quantification showing that SIMBA2 (0.25-0.5 µM) prevents the phosphorylation of APP at the T668 position in a dose-dependent manner. Data are expressed as mean ± SEM of 3 independent experiments (n = 6). ANOVA one-way, Dunnett’s post-hoc test, ** p <0.01. C) Western blot and related quantification showing that SIMBA2 (0.25-0.5 µM) reduces P-c-Jun phosphorylation in neurons. Data are expressed as mean ± SEM of 3 independent experiments (n = 6). […]
FIG. 10: A) Toxicity at the indicated concentrations of SIMBA2, evaluated by MTT assay and expressed as fold of change with respect to tcontrol. Data are expressed as mean ± SEM of 3 independent experiments (n = 6). […] B) Western blot of cortical neurons under control conditions in the absence (Ctr) or in the presence of SIMBA2 1 µM (1) and relative quantification showing that SIMBA2 (1 µM) at 24 h prevents the phosphorylation of P-c-Jun and reduces the phosphorylation of the APP at position T668 and C) the activity is maintained at 3 days and D) at 6 days after treatment. Data are expressed as mean ± SEM of 2 independent experiments (n = 5). […]

[1] = Toxicity after single injection: body weight and side effects in mice; format: in vivo, mouse
Method: FIG. 9: A) Measurement of body weight in mice before treatment. Data are expressed as mean body weight (g) ± SEM. B) Weight gain or loss was analyzed as the difference between the weight at the end and before the treatment. Data are expressed as mean ± SEM.
Therefore, SIMBA2 at the highest dose was able to prevent synaptopathy in vivo.
The toxicity of SIMBA2 after a single injection was evaluated. As an index of the general health of the animals, the change in the body weight of the mice was evaluated. […] 1 month after the I.P. injection, the body weight was measured again.

JNK3, sequence (P53779 whole entry, species assumed): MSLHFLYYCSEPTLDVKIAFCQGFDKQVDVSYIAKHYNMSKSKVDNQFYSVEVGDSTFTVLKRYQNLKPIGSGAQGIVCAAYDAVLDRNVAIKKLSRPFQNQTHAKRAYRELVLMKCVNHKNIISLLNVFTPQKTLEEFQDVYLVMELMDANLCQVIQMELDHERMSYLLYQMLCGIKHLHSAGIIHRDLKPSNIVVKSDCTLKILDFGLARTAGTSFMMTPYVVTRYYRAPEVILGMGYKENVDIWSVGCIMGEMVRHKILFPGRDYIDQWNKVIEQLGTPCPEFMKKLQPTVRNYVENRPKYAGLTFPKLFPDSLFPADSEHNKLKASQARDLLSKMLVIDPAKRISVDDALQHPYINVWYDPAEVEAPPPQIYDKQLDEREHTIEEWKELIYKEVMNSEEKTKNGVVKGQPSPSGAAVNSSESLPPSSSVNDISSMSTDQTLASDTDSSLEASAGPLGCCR

| Substance | inhibition of JNK3 activity on p-c-Jun (JNK3) | toxicity (MTT, % survival) (mouse cortical neurons) | change in body weight ([1]; 1 month after single I.P. injection, FIG. 9B) | side effects in vivo ([1]; TgCRND8 mice, 22 mg/kg) |
| --- | --- | --- | --- | --- |
| SIMBA2 short B: peptide SDRSLHLEAEKGNVNVHVTKTADKKIKVSVRQYADIEKGAQYKCPVAQLE (Designed peptide based on size and structure to act in the interaction among beta-arrestin-2 and JNK3) | inhibit the activity of JNK3 on p-c-Jun in a concentration-dependent manner |  |  |  |
| SIMBA2 short A: peptide SDRSLHLEAEKGNVNVHVTKTEKGKIKVSVRQYADIEKGAQYKCPVAQLE (Designed peptide based on size and structure to act in the interaction among beta-arrestin-2 and JNK3) | inhibit the activity of JNK3 on p-c-Jun in a concentration-dependent manner |  |  |  |
| SDRSLHLEANEKGENVNVHVTKTRADKSKIKVSVRQYADINEKGEAQYKCPVAQLE [SIMBA2] |  | no toxicity | did not show changes in body weight | did not lead to the onset of any noticeable side effects |
| SIMBA2 long A: peptide SDRSLHLEANEKGENVNVHVTKTNEKGEKIKVSVRQYADINEKGEAQYKCPVAQLE (Designed peptide based on size and structure to act in the interaction among beta-arrestin-2 and JNK3) | inhibit the activity of JNK3 on p-c-Jun in a concentration-dependent manner |  |  |  |
